In series [1] the test system is SEQ ID NO: 16 (MBP-AKA fusion protein; C terminus of aurora kinase activator um03367 of U. maydis with TAG).
For series [2], the target named is complex of SEQ ID NO: 12 and SEQ ID NO: 16 (MBP-AK / MBP-AKA) (Ustilago maydis, UniProt A0A0D1E894). The series can be described thus: IMAP fluorescence polarization assay, inhibitor measurement of aurora kinase activity. It counts as biochemical, U. maydis. The procedure:
Assay 3: For the commercially available IMAP Assay (Molecular Devices), 2 substrates for human aurora kinases (Kemptide, Cat #R7331, sequence 5TAMRA-LRRASLG-OH and PKAtide, Cat #R7250, Lot #130188, sequence 5FAM-GRTGRRNSI-NH2) may be purchased commercially. The assay was carried out in accordance with the instructions of the manufacturer.
The IMAP fluorescence polarization assay (Molecular Devices) is based on the specific high-affinity interaction between phosphate groups and trivalent metal ions. The kinase reaction phospholrylates a fluorescent substrate which is then specifically bonded by the metal beads present in the stop solution. This interaction increases the fluorescence polarization, which allows kinase activity to be determined. The assay was carried out in accordance with the instructions of the manufacturer as follows:
1 Vol. of inhibitor in 4% DMSO or 4% DMSO
1 Vol. of enzyme solution
Enzyme solution: for example SEQ ID NO: 12 and SEQ ID NO: 16 (1:1) in Complete Reaction Buffer ATP/substrate: 70 μM ATP/200 nM FAM-PKAtide or TAMRA-Kemptide in Complete Reaction Buffer
Fluorescence polarization was measured in a Tecan Ultra microtitre plate fluorimeter using the following measurement parameters:
Unless indicated otherwise, the activity of the AK was determined by the IMAP method as described under General Methods. […]

Sequence of complex of SEQ ID NO: 12 and SEQ ID NO: 16 (MBP-AK / MBP-AKA) (A0A0D1E894 entry or part of it, one chain of several): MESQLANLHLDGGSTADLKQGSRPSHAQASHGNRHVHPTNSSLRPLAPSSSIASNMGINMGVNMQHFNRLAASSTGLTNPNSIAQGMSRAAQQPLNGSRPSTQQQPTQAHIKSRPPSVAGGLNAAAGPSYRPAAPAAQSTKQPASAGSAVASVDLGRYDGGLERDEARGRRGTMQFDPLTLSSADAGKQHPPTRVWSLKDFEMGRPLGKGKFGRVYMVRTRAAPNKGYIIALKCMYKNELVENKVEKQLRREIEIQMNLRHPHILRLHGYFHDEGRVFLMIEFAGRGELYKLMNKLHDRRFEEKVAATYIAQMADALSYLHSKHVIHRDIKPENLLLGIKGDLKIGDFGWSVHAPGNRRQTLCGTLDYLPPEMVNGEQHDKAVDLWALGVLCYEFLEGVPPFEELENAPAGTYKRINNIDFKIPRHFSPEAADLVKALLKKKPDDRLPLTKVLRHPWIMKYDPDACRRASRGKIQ

With “SEQ ID NO: 12 (MBP-AK fusion protein; aurora kinase um10119 of U. maydis with TAG)”, in series [1], the “AK activity, radioactive assay (phosphorylation of basic myelin protein)” value is “SEQ ID NO: 12 in the presence of SEQ ID NO: 16 shows AK activity”; the “phosphorylation of basic myelin protein, PKAtide and Kemptide (IMAP fluorescence polarization assays)” value was “The purified complex of MBP-SEQ ID NO: 12 and MBP-SEQ ID NO: 16 was capable of phosphorylating both basic myelin protein and the substrates for human aurora kinases, PKAtide and Kemptide”; the “phosphorylation of substrates for human aurora kinase A (IMAP assay)” value was “Both substrates for human aurora kinase A were phosphorylated by SEQ ID NO: 12 in the presence of SEQ ID NO: 16”.
In series [2], `CN[C@@H]1C[C@H]2O[C@@](C)([C@@H]1OC)n1c3ccccc3c3c4c(c5c6ccccc6n2c5c31)C(=O)NC4` [staurosporine] had a half-inhibitory concentration (IC50) of 2.1 nM.

In general, IC50 refers to the point on the concentration scale where inhibition reaches its midpoint. Lower therefore signals greater potency.

Values taken from patent publication US20120178116A1, “POLYPEPTIDES FOR IDENTIFYING FUNGICIDALLY ACTIVE COMPOUNDS” (priority 2011, published 2012).
